Measurements reported in publication PMC12075686, “Structural basis of phosphorylation-independent nuclear import of CIRBP by TNPO3” (Nature Communications, 2025).
Several values for one entry are separate records, joined by “and”; a condition that tells them apart may be missing. Identical values can stand only once. Like-named read-outs stand apart in the source and are kept apart here. Values belong to the molecule of their own block, whether it stands above or below them. No end group written: not given here.

Experiments:
[1] = target: SRSF1 RS-NLS (Homo sapiens) (UniProt Q07955); experiment: FP; details: cited from earlier work
Chain of SRSF1 RS-NLS (Homo sapiens) (Q07955 198-227): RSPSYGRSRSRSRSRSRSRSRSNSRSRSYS

[2] = target: CPSF6 RS-NLS (Homo sapiens) (UniProt Q16630); experiment: FP; details: cited from earlier work
Chain of CPSF6 RS-NLS (Homo sapiens) (Q16630 490-551): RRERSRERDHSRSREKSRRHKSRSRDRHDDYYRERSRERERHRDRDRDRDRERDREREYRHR

[3] = target: T1, TNPO3 WT (Homo sapiens, UniProt Q9Y5L0); experiment: ITC, ligand titrated into TNPO3 WT; assay type: binding; details: ITC, TNPO3 WT; for Kd: 25 °C, pH 7.5, read-out: TNPO3 binding Kd
T1 sequence (Q9Y5L0 1-923): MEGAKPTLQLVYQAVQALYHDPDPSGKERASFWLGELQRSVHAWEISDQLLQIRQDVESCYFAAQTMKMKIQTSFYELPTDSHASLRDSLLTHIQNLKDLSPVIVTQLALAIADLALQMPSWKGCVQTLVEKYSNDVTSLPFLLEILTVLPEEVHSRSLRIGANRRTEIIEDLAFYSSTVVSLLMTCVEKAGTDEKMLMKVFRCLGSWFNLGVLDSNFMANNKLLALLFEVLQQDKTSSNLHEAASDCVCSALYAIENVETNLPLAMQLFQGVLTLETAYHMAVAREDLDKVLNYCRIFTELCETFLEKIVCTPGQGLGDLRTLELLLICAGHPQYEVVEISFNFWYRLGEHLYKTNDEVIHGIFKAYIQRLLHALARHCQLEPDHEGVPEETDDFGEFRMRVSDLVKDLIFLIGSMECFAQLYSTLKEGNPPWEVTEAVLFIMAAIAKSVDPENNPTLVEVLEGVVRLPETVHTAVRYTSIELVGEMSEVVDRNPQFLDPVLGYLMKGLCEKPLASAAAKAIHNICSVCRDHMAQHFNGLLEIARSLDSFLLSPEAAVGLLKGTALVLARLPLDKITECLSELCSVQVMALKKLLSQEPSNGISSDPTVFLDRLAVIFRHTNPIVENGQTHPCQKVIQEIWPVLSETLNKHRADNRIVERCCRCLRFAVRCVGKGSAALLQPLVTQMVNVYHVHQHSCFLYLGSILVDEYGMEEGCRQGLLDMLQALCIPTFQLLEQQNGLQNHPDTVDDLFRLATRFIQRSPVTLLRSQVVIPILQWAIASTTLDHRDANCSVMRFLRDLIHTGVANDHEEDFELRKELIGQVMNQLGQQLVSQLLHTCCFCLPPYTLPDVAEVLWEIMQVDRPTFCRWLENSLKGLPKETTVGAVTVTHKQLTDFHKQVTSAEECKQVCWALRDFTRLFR
Description: ITC has been performed by a Malvern Microcal VP-ITC at 25 °C for all binding studies. Samples have been dissolved in Tris buffer containing 50 mM Tris–HCl, 150 mM NaCl, 2 mM TCEP, and 0.04% NaN3 at pH 7.5. Binding studies of CIRBP^RSY and SRSF1^RS were performed with TNPO3 WT, and studies of CIRBP (157–172) and its mutants/phosphorylations were performed with TNPO3 C511A, respectively. Injection has been carried out by a syringe containing ligand solution of 100 μM, which adds ligand step-wise into the cell containing 10 μM TNPO3 during 28 injections of 10 μL each. Data analysis, curve fitting, and calculation of Kd, ΔH, and ΔS have been carried out using Origin-based 7.0 software provided by the manufacturer. All replicated ITC data are shown in Supplementary Fig. 6 and Supplementary Table 1.

[4] = tested on: TNPO3; experiment: NMR binding studies with TNPO3 (1H-15N HSQC, 1H-13C HMQC, 1H 1D, STD); set-up: species or system human; details: pH 6.7
Description: All NMR studies for TNPO3 were carried out using the wild type protein. Protein samples for ^1H-^13C HMQC were prepared at a concentration of 100 μM and equilibrated in a buffer containing 50 mM Tris–HCl, pH 6.7, 150 mM NaCl, 2 mM TCEP and 10% D2O. Spectral acquisitions for TNPO3 free and in complex with CIRBP^RSY and SRSF1^RS, respectively were performed at 298 K on a 700 MHz Bruker Avance III NMR spectrometer equipped with a TCI triple-resonance cryoprobe. The pulse program was sfhmqcf2gpph and the spectra were recorded with 32 scans, interscan delay of 1 s, 160 points in F1, 1024 points in F2, 5283.879 Hz spectral width in F1, and 11,160.714 Hz spectral width in F2. Spectra were processed using Topspin 4.1.3.
Spectral acquisitions for TNPO3 free and in complex with mCIRBP^RSY, pCIRBP^RSY, and pSRSF1^RS, respectively, were performed at 298 K on a 600 MHz Bruker Avance Neo NMR spectrometer equipped with a TXI 600S3 probehead. The pulse program was hmqcgpphwg and the spectra were recorded with 64 scans, interscan delay of 1 s, 200 points in F1, 1024 points in F2, 4545.455 Hz spectral width in F1, and 7812.500 Hz spectral width in F2. Spectra were processed using Topspin 4.3.0.
For ^1H-^15N HSQC spectra, protein samples were equilibrated in a buffer containing 50 mM Tris–HCl, pH 6.7, 150 mM NaCl, 2 mM TCEP, 0.04% NaN3, and 10% D2O (with additional 20 mM MgCl2 for CIRBP phosphorylation kinetics). Data were recorded at 298 K on the 600 MHz Bruker Avance Neo NMR spectrometer equipped with a TXI 600S3 probehead. The pulse program was hsqcetfpf3gpsi and was recorded with 8-16 scans, interscan delay of 1 s, 128 points in F1, 1024 points in F2, 1949.318 Hz spectral width in F1, and 9615.385 Hz spectral width in F2. Spectra were processed using Topspin 4.3.0.

[5] = target: Transportin 3 (TNPO3), full-length wild type (human) (UniProt Q9Y5L0); experiment: ITC; 100 µM ligand in the syringe injected (28 x 10 µL) into 10 µM TNPO3 (WT or C511A) in the cell; 25 °C; 50 mM Tris-HCl pH 7.5, 150 mM NaCl, 2 mM TCEP, 0.04% NaN3
[6] = target: T2, Transportin 3 (TNPO3) C511A mutant (human, UniProt Q9Y5L0 1-923, C511A); experiment: ITC
T2 sequence: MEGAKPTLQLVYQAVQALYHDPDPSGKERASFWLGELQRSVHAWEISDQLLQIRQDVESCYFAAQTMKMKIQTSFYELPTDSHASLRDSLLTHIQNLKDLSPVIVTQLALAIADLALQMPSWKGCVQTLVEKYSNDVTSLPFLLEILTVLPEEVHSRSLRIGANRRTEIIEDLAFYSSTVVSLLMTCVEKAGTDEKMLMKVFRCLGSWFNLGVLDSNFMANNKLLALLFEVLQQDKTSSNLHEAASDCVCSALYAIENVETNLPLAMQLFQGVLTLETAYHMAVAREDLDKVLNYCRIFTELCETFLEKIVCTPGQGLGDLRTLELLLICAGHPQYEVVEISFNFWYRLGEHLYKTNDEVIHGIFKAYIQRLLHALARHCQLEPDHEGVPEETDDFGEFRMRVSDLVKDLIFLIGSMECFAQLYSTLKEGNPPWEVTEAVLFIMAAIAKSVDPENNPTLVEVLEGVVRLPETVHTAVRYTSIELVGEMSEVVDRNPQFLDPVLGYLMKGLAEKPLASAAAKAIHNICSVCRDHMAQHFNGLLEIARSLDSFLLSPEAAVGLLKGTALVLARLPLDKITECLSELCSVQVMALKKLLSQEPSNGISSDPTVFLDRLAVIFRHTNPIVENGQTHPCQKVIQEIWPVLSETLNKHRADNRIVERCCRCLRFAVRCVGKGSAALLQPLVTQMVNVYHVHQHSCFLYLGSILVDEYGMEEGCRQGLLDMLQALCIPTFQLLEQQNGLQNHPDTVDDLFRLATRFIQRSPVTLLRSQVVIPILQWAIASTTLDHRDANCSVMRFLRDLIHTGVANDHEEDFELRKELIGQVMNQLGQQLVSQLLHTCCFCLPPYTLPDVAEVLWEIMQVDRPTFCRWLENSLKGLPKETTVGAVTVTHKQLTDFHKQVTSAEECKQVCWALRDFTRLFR

[7] = target: T3, Transportin 3 (TNPO3), full-length wild type (human, UniProt Q9Y5L0 1-923); experiment: NMR titration; 1H NMR spectra of 50 µM peptide free and with a stoichiometric amount (50 µM) of TNPO3 WT; line broadening of peptide signals; details: both partners purified
T3 construct: Transportin 3 (TNPO3), human, full-length wild type; For the NMR experiments made 15N-labelled with 13C-methyl labelling of isoleucine and methionine side chains ([IM-methyl 13C]); Vector pETM11-His6-protein A with a TEV site downstream of the protein A tag; also called TNPO3 WT; TNPO3 FL WT; source: E. coli BL21-(DE3) Star, purified (Ni-NTA, TEV cleavage, second Ni-NTA, SEC Superdex 200); not …
T3 sequence (looked up): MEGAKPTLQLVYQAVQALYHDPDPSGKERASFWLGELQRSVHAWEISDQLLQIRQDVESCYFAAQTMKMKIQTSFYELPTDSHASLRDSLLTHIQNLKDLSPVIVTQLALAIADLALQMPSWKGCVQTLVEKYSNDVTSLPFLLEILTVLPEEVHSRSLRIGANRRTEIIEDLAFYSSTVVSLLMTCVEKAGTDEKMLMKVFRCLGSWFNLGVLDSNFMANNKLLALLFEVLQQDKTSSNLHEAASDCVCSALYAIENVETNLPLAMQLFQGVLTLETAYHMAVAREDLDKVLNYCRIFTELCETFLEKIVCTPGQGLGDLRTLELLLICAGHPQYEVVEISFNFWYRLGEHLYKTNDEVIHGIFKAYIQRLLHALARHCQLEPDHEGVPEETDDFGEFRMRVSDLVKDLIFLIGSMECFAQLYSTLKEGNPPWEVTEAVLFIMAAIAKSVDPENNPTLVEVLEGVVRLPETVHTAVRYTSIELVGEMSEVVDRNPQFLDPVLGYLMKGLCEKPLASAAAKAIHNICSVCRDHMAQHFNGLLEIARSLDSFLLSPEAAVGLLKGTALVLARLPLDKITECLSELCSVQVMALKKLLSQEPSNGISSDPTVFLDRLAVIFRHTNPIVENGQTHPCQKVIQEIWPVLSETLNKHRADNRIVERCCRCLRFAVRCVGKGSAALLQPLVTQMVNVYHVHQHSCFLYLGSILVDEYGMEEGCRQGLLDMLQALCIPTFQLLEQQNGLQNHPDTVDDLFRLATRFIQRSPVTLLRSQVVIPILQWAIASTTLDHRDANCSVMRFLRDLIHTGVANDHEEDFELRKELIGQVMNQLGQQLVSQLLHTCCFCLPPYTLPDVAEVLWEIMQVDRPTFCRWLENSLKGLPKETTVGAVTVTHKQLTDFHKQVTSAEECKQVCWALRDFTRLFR

[8] = target: Transportin 3 (TNPO3) C511A mutant (human) (UniProt Q9Y5L0); experiment: ITC; 100 µM ligand in the syringe injected (28 x 10 µL) into 10 µM TNPO3 (WT or C511A) in the cell; 25 °C; 50 mM Tris-HCl pH 7.5, 150 mM NaCl, 2 mM TCEP, 0.04% NaN3
[9] = target: T2, Transportin 3 (TNPO3) C511A mutant; experiment: ITC; remark: listed apart in the source
[10] = target: T2, Transportin 3 (TNPO3) C511A mutant; experiment: ITC; rep2

Molecule: TNPO3 (from UniProt Q9Y5L0)
Kd [1]: 1300 nM | Kd [2]: 3400 nM

Kd ([3]; replicate 1 (rep1)): 2490 ± 400 nM | Kd ([3]; replicate 2 (rep2)): 2460 ± 500 nM | ΔS ([3]; replicate 1 (rep1)): –9.12 cal/mol/deg | ΔS ([3]; replicate 2 (rep2)): –34.0 cal/mol/deg
Molecule: pSRSF1^RS: SRSF1^RS phosphorylated in vitro using recombinant SRPK1 (DGPRSPSYGRSRSRSRS; also: multiple phosphoserines, sites not listed) [reference compound]
spectral changes of 15N-labeled cargo upon addition of TNPO3 (1H,15N HSQC) ([4]; 60 µM cargo, one stoichiometric equivalent of TNPO3, 298 K): extensive line broadening of several NMR signals | chemical shift perturbations of TNPO3 methyl groups upon ligand addition (1H,13C HMQC) ([4]; 100 µM [IM-methyl 13C] labeled TNPO3, one stoichiometric equivalent of ligand, 298 K): led to CSPs of several TNPO3 ^1H,^13C cross-peaks

Kd [5]: 2420 nM
Molecule: SR/RS-NLS of SRSF1, residues 195-211, phosphorylated in vitro by SRPK1 (from UniProt Q07955 195-211) (domain or fragment)

Kd [6]: 1180 nM | binding result [7]: binds | Kd [8]: 5780 nM | Kd [9]: 6200 nM and 4240 nM | Kd [10]: 6200 nM
B1: CIRBP (157-172) synthetic peptide, wild type (peptide)
peptide: GGSYRDSYDSYATHNE
notes: also called mCIRBP^RSY; source: synthetic peptide (Peptide Specialty Laboratories GmbH)
